Measurements published in patent US20250215070A1.

Legend:
[1] = biological target: human Collagen triple helix repeat-containing protein 1 (CTHRC1) (human) (UniProt Q96CG8); assay: bio-layer interferometry; CTHRC1 species not stated
[2] = biological target: human Collagen triple helix repeat-containing protein 1 (CTHRC1) (human) (UniProt Q96CG8); assay: binding EC50 on huCTHRC1; method not stated (ELISA named in text)

human Collagen triple helix repeat-containing protein 1 (CTHRC1) (human), sequence (Q96CG8 31-243): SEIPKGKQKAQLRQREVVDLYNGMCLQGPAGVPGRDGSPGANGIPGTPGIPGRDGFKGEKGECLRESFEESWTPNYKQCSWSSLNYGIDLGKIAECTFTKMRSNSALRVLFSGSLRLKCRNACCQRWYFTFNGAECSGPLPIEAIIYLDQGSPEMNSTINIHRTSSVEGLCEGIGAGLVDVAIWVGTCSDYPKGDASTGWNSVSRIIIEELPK

Binder	Kd [1]	EC50 [2]
CTHRC1S-M5 (antibody, V domains shown) VH: EVQLVESGGGLVTPGGSLRLSCAASGFTFSTYSMNWVRQAPGKGLEWVSSISGSSGHIYYADSVRGRFTISRDNAKNSLYLQMNSLRAEDTAVYYCASMHYYYYLDVWGKGTTVTVSS VL: QAVVTQESALTTSPGETVTLTCRSSTGTVTTSNYVTWVQEKPDHLFTGLIGATNNRAPGVPARFSGSLIGDKAALTITGAQTEDEAIYFCALWYSNHWVFGGGTKLTVL	3.18 nM	1.85 nM
CTHRC1S-M11 (antibody, V domains shown) VH: QVTLRESGPALVKPTQTLTLTCTFSGFSLSTNVMCVSWIRQPPGKALEWLALIDWDDDKYYSTSLKTRLTISKDTSKNQVVLTMTNMDPVDTATYYCARTGITGTHYYYYYMDVWGKGTTVTVSS VL: AIQMTQSPSSLSASVGDRVTITCRASQGIRNDLGWYQQKPGKAPKLLIYAASSLQSGVPSRFSGSGFGTDFTLTISSLQPEDFATYYCLQDYNYPWTFGQGTKVEIK	2 nM	9.76 nM
CTHRC1S-M14 (antibody, V domains shown) VH: EVQVVESGGGLVQPGGSLRLSCAASRFTFSNYWMSWVRQAPGRGLEWVANIKQDGSEKYYVDSVKGRFTISRDNAKNSLYLQMNSLRAEDTAVYYCAREGGYCSDTRCFFYMDVWGKGTTVTVSS VL: DIQMTQSPSTLSASVGDRVTITCRASQSIISWLAWYQQKPGKAPKLLIYKASSLEGGVPSRFSGSGSGTDFTLTISSLQPDDFATYYCQQYNSYSRTFGQGTTVEIK	< 0.001 nM	0.05 nM
